Laboratory results published in US20240409635A1 (VIBRANT PHARMA, published 2024).
Substitutions are numbered along the chain they refer to. Like-named read-outs stand apart in the source and are kept apart here.

T1: recombinant human tumor antigen CEACAM-6 (ACRO systems, CE6-H5223) (human, UniProt P40199 35-320)
T1 construct: Bought
T1 sequence (looked up): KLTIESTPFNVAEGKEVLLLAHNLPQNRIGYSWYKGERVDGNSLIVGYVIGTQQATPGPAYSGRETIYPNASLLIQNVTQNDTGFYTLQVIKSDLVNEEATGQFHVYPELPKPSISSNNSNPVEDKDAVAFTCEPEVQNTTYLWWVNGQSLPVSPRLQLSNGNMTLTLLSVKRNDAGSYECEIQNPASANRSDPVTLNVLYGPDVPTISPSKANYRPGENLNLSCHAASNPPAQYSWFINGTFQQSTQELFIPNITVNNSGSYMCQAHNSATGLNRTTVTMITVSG

B1: CEA-BsAb (CD3 TA1-Fab x CEA VHH bispecific control antibody) (bispecific antibody, human IgG4 S228P, kappa, F234A L235A)
heavy: EVKLLESGGGLVQPKGSLKLSCAASGFTFNTYAMNWVRQAPGKGLEWVARIRSKYNNYATYYADSVKDRFTISRDDSQSILYLQMNNLKTEDTAMYYCVRHGNFGNSYVSWFAYWGQGTLVTVSSASTKGPSVFPLAPCSRSTSESTAALGCLVKDYFPEPVTVSWNSGALTSGVHTFPAVLQSSGLYSLSSVVTVPSSSLGTKTYTCNVDHKPSNTKVDKRVESKYGPPCPPCPAPEAAGGPSVFLFPPKPKDTLMISRTPEVTCVVVDVSQEDPEVQFNWYVDGVEVHNAKTKPREEQFNSTYRVVSVLTVLHQDWLNGKEYKCKVSNKGLPSSIEKTISKAKGQPREPQVYTLPPCQEEMTKNQVSLWCLVKGFYPSDIAVEWESNGQPENNYKTTPPVLDSDGSFFLYSRLTVDKSRWQEGNVFSCSVMHEALHNHYTQKSLSLSL
chain: EVQLVESGGGFVQAGESLTLSCTSSTLTFTPYRMAWYRQAPGKQRDLVADISSGDGRTTNYADFAKGRFTISRDNIKNTVFLRMTNLKPEDTAVYYCNTFVSFVGIARSWGQGTQVTVSSESKYGPPCPPCPAPEAAGGPSVFLFPPKPKDTLMISRTPEVTCVVVDVSQEDPEVQFNWYVDGVEVHNAKTKPREEQFNSTYRVVSVLTVLHQDWLNGKEYKCKVSNKGLPSSIEKTISKAKGQPREPQVCTLPPSQEEMTKNQVSLSCAVKGFYPSDIAVEWESNGQPENNYKTTPPVLDSDGSFFLVSRLTVDKSRWQEGNVFSCSVMHEALHNRFTQKSLSLSL
light: QAVVTQESALTTSPGETVTLTCRSSTGAVTTSNYANWVQEKPDHLFTGLIGGTNKRAPGVPARFSGSLIGDKAALTITGAQTEDEAIYFCALWYSNLWVFGGGTKVEIKRTVAAPSVFIFPPSDEQLKSGTASVVCLLNNFYPREAKVQWKVDNALQSGNSQESVTEQDSKDSTYSLSSTLTLSKADYEKHKVYACEVTHQGLSSPVTKSFNRGEC
B2: unilateral CD3/CEA-CAM6/HER2 trispecific antibody 710 (other)
chain 1: QVKLEESGGGLVQAGGSLRLSCRTSGRTNSVYTMGWFRQAPGKEREFVAQIMWGAGTNTHYADSVKGRFTISRDSAESTVYLQMNSLKPEDTAVYYCAANRGIPIAGRQYDYWGQGTQVTVSSESKYGPPCPPCPAPEAAGGPSVFLFPPKPKDTLMISRTPEVTCVVVDVSQEDPEVQFNWYVDGVEVHNAKTKPREEQFNSTYRVVSVLTVLHQDWLNGKEYKCKVSNKGLPSSIEKTISKAKGQPREPQVYTLPPCQEEMTKNQVSLWCLVKGFYPSDIAVEWESNGQPENNYKTTPPVLDSDGSFFLYSRLTVDKSRWQEGNVFSCSVMHEALHNHYTQKSLSLSL
chain 2: B1 heavy with Y354C, C359S, W371S, L373A, Y412V, H440R, Y441F
chain 3: QVQLVQSGGGLVQAGGSLRLSCAASGRTFSSYAMAWFRQAPGKEREFVAAISWSGANIYVADSVKGRFTISRDNAKDTVYLQMNSLKPEDTAVYYCAVKLGFAPVEERQYDYWGQGTQVTVSSGGGGSGGGGSQAVVTQESALTTSPGETVTLTCRSSTGAVTTSNYANWVQEKPDHLFTGLIGGTNKRAPGVPARFSGSLIGDKAALTITGAQTEDEAIYFCALWYSNLWVFGGGTKVEIKRTVAAPSVFIFPPSDEQLKSGTASVVCLLNNFYPREAKVQWKVDNALQSGNSQESVTEQDSKDSTYSLSSTLTLSKADYEKHKVYACEVTHQGLSSPVTKSFNRGEC
B3: unilateral CD3/CEA-CAM6/HER2 trispecific antibody 709 (other)
chain 1: B1 heavy
chain 2: B2 chain 1 with Y254C, C259S, W271S, L273A, Y312V, H340R, Y341F
chain 3: B2 chain 3
B4: unilateral CD3/CEA-CAM6/HER2 trispecific antibody 711 (other)
chain 1: QVQLVQSGGGLVQAGGSLRLSCAASGRTFSSYAMAWFRQAPGKEREFVAAISWSGANIYVADSVKGRFTISRDNAKDTVYLQMNSLKPEDTAVYYCAVKLGFAPVEERQYDYWGQGTQVTVSSGGGGSGGGGSEVKLLESGGGLVQPKGSLKLSCAASGFTFNTYAMNWVRQAPGKGLEWVARIRSKYNNYATYYADSVKDRFTISRDDSQSILYLQMNNLKTEDTAMYYCVRHGNFGNSYVSWFAYWGQGTLVTVSSASTKGPSVFPLAPCSRSTSESTAALGCLVKDYFPEPVTVSWNSGALTSGVHTFPAVLQSSGLYSLSSVVTVPSSSLGTKTYTCNVDHKPSNTKVDKRVESKYGPPCPPCPAPEAAGGPSVFLFPPKPKDTLMISRTPEVTCVVVDVSQEDPEVQFNWYVDGVEVHNAKTKPREEQFNSTYRVVSVLTVLHQDWLNGKEYKCKVSNKGLPSSIEKTISKAKGQPREPQVYTLPPCQEEMTKNQVSLWCLVKGFYPSDIAVEWESNGQPENNYKTTPPVLDSDGSFFLYSRLTVDKSRWQEGNVFSCSVMHEALHNHYTQKSLSLSL
chain 2: B2 chain 1 with Y254C, C259S, W271S, L273A, Y312V, H340R, Y341F
chain 3: B1 light
B5: unilateral CD3/CEA-CAM6/HER2 trispecific antibody 703 (other)
chain 1: B1 heavy
chain 2: QVQLVQSGGGLVQAGGSLRLSCAASGRTFSSYAMAWFRQAPGKEREFVAAISWSGANIYVADSVKGRFTISRDNAKDTVYLQMNSLKPEDTAVYYCAVKLGFAPVEERQYDYWGQGTQVTVSSESKYGPPCPPCPAPEAAGGPSVFLFPPKPKDTLMISRTPEVTCVVVDVSQEDPEVQFNWYVDGVEVHNAKTKPREEQFNSTYRVVSVLTVLHQDWLNGKEYKCKVSNKGLPSSIEKTISKAKGQPREPQVCTLPPSQEEMTKNQVSLSCAVKGFYPSDIAVEWESNGQPENNYKTTPPVLDSDGSFFLVSRLTVDKSRWQEGNVFSCSVMHEALHNRFTQKSLSLSL
chain 3: QVKLEESGGGLVQAGGSLRLSCRTSGRTNSVYTMGWFRQAPGKEREFVAQIMWGAGTNTHYADSVKGRFTISRDSAESTVYLQMNSLKPEDTAVYYCAANRGIPIAGRQYDYWGQGTQVTVSSGGGGSGGGGSQAVVTQESALTTSPGETVTLTCRSSTGAVTTSNYANWVQEKPDHLFTGLIGGTNKRAPGVPARFSGSLIGDKAALTITGAQTEDEAIYFCALWYSNLWVFGGGTKVEIKRTVAAPSVFIFPPSDEQLKSGTASVVCLLNNFYPREAKVQWKVDNALQSGNSQESVTEQDSKDSTYSLSSTLTLSKADYEKHKVYACEVTHQGLSSPVTKSFNRGEC
B6: unilateral CD3/CEA-CAM6/HER2 trispecific antibody 701 (other)
chain 1: B1 heavy
chain 2: B5 chain 2
chain 3: QAVVTQESALTTSPGETVTLTCRSSTGAVTTSNYANWVQEKPDHLFTGLIGGTNKRAPGVPARFSGSLIGDKAALTITGAQTEDEAIYFCALWYSNLWVFGGGTKVEIKRTVAAPSVFIFPPSDEQLKSGTASVVCLLNNFYPREAKVQWKVDNALQSGNSQESVTEQDSKDSTYSLSSTLTLSKADYEKHKVYACEVTHQGLSSPVTKSFNRGECGGGGSGGGGSQVKLEESGGGLVQAGGSLRLSCRTSGRTNSVYTMGWFRQAPGKEREFVAQIMWGAGTNTHYADSVKGRFTISRDSAESTVYLQMNSLKPEDTAVYYCAANRGIPIAGRQYDYWGQGTQVTVSS

Key:
Assay in all cases: BLI, antibody on AHC sensor, antigen as analyte
[1] = target: T2, recombinant human protein CD3ε/δ (ACRO systems, CDD-H52W1) (human, UniProt P07766 23-126; P04234 22-105)
T2 construct: Bought heterodimer
T2 sequence (P07766 23-126, stated change not applied, chain 1 of 2): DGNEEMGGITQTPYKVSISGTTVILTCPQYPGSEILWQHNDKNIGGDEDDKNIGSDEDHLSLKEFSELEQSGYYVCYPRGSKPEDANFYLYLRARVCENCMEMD
T2 sequence (P04234 22-105, stated change not applied, chain 2 of 2): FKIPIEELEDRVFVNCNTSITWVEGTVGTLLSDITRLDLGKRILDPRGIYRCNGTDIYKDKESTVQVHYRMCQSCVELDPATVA
Method: (§1) Antibodies were first captured onto an anti-human IgG Fc coated AHC biosensor (Anti-hIgG Fc, Sartorius, 18-5060). Antibodies were diluted to 5 μg/mL and 1.5 nm protein was coupled to the AHC sensor surface in 0.02% PBST.
(§2) After the sensor captures the antibodies, it binds and dissociates with different concentrations of analytes to obtain the KD value of the interaction. The experimental parameters are as follows: Baseline1: 60 s, Loading: 240 s, Baseline2: 180 s, Association: 240 s, Dissociation: 600 s, High sensitivity kinetics: 2 Hz. Kinetic constants were derived based on the rate equation for 1:1 Langmuir binding to obtain equilibrium dissociation constants (KD). The Data Analysis HT 12 software (Sartorius, 50-5029) was used to simultaneously fit binding and dissociation curves to calculate Kₒₙ and Koff. The affinity KD was calculated based on the below formula: KD=Koff/Kₒₙ.

[2] = target: T3, recombinant human tumor antigen HER2 (ERBB2, ACRO systems, HE2-H5212) (human, UniProt P04626 23-652)
T3 construct: Bought
Method: as §1, §2

[3] = target: T1, recombinant human tumor antigen …
[4] = target: T3, recombinant human tumor antigen HER2 …; remark: listed apart in the source
[5] = target: T2, recombinant human protein CD3ε/δ (ACRO …); remark: listed apart in the source

| Binder | Kd [1] | koff [1] | kon [1] | koff [2] | kon [2] | Kd [3] | koff [3] | kon [3] | Kd [4] | koff [4] | kon [4] | Kd [5] | koff [5] | kon [5] |
| --- | --- | --- | --- | --- | --- | --- | --- | --- | --- | --- | --- | --- | --- | --- |
| B1 | 1.64 nM | 0.00045 s⁻¹ | 275000 M⁻¹ s⁻¹ | 0.027 s⁻¹ | 3680 M⁻¹ s⁻¹ |  |  |  |  |  |  |  |  |  |
| B2 |  |  |  |  |  | 4.48 nM | 0.00179 s⁻¹ | 398000 M⁻¹ s⁻¹ | 15.4 nM | 0.00383 s⁻¹ | 249000 M⁻¹ s⁻¹ | 0.686 nM | 0.000127 s⁻¹ | 186000 M⁻¹ s⁻¹ |
| B3 |  |  |  |  |  | 4.16 nM | 0.0018 s⁻¹ | 433000 M⁻¹ s⁻¹ | 20.7 nM | 0.00455 s⁻¹ | 219000 M⁻¹ s⁻¹ | 0.351 nM | 6.18e-05 s⁻¹ | 176000 M⁻¹ s⁻¹ |
| B4 |  |  |  |  |  | 4.52 nM | 0.00254 s⁻¹ | 562000 M⁻¹ s⁻¹ | 38.9 nM | 0.00888 s⁻¹ | 228000 M⁻¹ s⁻¹ | 1.41 nM | 0.000516 s⁻¹ | 367000 M⁻¹ s⁻¹ |
| B5 |  |  |  |  |  | 5.16 nM | 0.00187 s⁻¹ | 363000 M⁻¹ s⁻¹ | 16.3 nM | 0.00356 s⁻¹ | 218000 M⁻¹ s⁻¹ | 0.379 nM | 8.4e-05 s⁻¹ | 222000 M⁻¹ s⁻¹ |
| B6 |  |  |  |  |  | 13.3 nM | 0.00297 s⁻¹ | 223000 M⁻¹ s⁻¹ | 37.5 nM | 0.00693 s⁻¹ | 185000 M⁻¹ s⁻¹ | 1.3 nM | 0.000402 s⁻¹ | 309000 M⁻¹ s⁻¹ |
